Test system: hESC-derived EPs
Experiment: Growth factor treatment of hESC-derived EPs for 3 days, immunofluorescence quantification of marker-positive cells
Type: cell-based, human
Conditions: for increase in number of ISL1+ cells: high concentration treatment; for INS+ cell numbers (in words): two concentrations
Method: hESC, ISL1-EGFP Hues8 and H1, were maintained under a feeder-free system on Geltrex (Invitrogen) in TeSR-E8 media (Stemcell Technologies). Cells were passaged at 70-80% confluence using TrypLE (Invitrogen). After dissociation, cells were seeded in TeSR-E8 media+10 μM Y-27632 for 24h. Differentiation was started when cells were 90% confluent. The following media and growth factors/small molecules (see also Table 3) were used: Day1: MCDB-131 media with 0.1% BSA+10 mM glucose+ActivinA and CHIR99021. Day2-3: MCDB-131 media+0.1% BSA+10 mM glucose+ActivinA. Day4-5: MCDB-131+0.1% BSA, 10 mM glucose, VitC+KGF. Day6-9: MCDB-131 2% BSA+5.5 mM glucose+Vit.C+ITS (Invitrogen)+ActivinA+KGF+RA+SANT-1+Noggin. Day10-12: MCDB-131+2% BSA+5.5 mM glucose+VitC+ITS+SANT-1+Noggin+PdBU. Day13-15: MCDB-131+2% BSA+5.5 mM glucose+VitC+ITS+Noggin+AlK5i. EPs were dissociated and seeded as 25,000 cells/well on Geltrex-coated 96-well plates in DMEM media (Invitrogen) with B27 Supplement (Thermo Fisher Scientific), later called B27 media, supplemented with 10 µM Y-27632 for 24h. Growth factors (Table 3) were added to B27 media, at two concentrations, and tested on EPs for 3 days. After 3 days, cells were PBS washed, fixed with 4% PFA/PBS for 20 min at room temperature (RT), washed twice with PBS and stained.
Cells were incubated with 5% donkey serum (Jackson ImmunoResearch Laboratories) in PBST (PBS+0.1% Triton-X) for 30 min to avoid nonspecific binding of the antibody and to permeabilize the cells. Primary antibodies, diluted in 5% donkey serum in PBST, were then added and incubated at 4° C. overnight with shaking. After primary antibody incubation, cells were washed 3 times with PBST and secondary antibodies conjugated with Alexa-Fluor Dyes (Jackson ImmunoResearch Laboratories) and diluted in 5% donkey serum in PBST were added to the cells for 30 min at RT. Then, cells were thrice washed with PBST and nuclei were stained with Dapi (Roche Diagnostics). For imaging, Leica DMI6000 or confocal Leica TCS SPE was used. Images were initially processed by LAS X software and then further analyzed and quantified using ImageJ software (NIH, W Rasband, http://rsb.info.nih.gov/ij) using cell counter plug-in. Typically, at least 5 randomly selected images were counted per condition.

[1] = 200 ng/ml Gremlin1, 3 days, vs untreated

Molecule	effect on the number of CHGA+ and INS+ cells (in words) (3 days treatment of EPs)	increase in number of ISL1+ cells (3 days) [fold]	numbers of ISL1-eGFP, CHGA+, INS+ and C-peptide+ cells over untreated controls (in words) (3 days treatment of EPs)	also measured
HGF: growth factor (R&D), 50 or 100 ng/ml	little or no effect	~2		
IGF: growth factor (R&D), 10 or 50 ng/ml	little or no effect	~2		
THBS2: growth factor (R&D), 5 or 1 μg/ml	little or no effect	~2		
Gremlin1: a BMP antagonist upregulated in Wk17.5h and 20.1 M-E primary cells (protein, UniProt O60565 25-184, looked up) Gremlin-1: KKKGSQGAIPPPDKAQHNDSEQTQSPQQPGSRNRGRGQGRGTAMPGEEVLESSQEALHVTERKYLKRDWCKTQPLKQTIHEEGCNSRTIINRFCYGQCNSFYIPRHIRKEEGSFQSCSFCKPKKFTTMMVTLNCPELQPPTKKKRVTRVKQCRCISIDLD				increase in CHGA+ cell numbers [1]: 5 fold; increase in INS+ cell numbers [1]: 5 fold; decrease in the number of GCG+ cells (3-day EP treatment, vs untreated control): 3 fold
PDPN: podoplanin, a mucin-type transmembrane glycoprotein (protein, UniProt Q86YL7 23-162, looked up) Podoplanin: ASTGQPEDDTETTGLEGGVAMPGAEDDVVTPGTSEDRYKSGLTTLVATSVNSVTGIRIEDLPTSESTVHAQEQSPSATASNVATSHSTEKVDGDTQTTVEKDGLSTVTLVGIIVGVLLAIGFIGAIIVVVMRKMSGRYSP			increased	increase in number of CHGA+ cells (high concentration, 3 days): 3 fold; increase in number of INS+ cells (high concentration, 3 days): 3 fold
Endocan: niche-derived secreted factor (R&D), 1 or 5 ng/ml (protein, UniProt Q9NQ30 20-184, looked up) Endothelial cell-specific …: WSNNYAVDCPQHCDSSECKSSPRCKRTVLDDCGCCRVCAAGRGETCYRTVSGMDGMKCGPGLRCQPSNGEDPFGEEFGICKDCPYGTFGMDCRETCNCQSGICDRGTGKCLKFPFFQYSVTKSSNRFVSLTEHDMASGDGNIVREEVVKENAAGSPVMRKWLNPR			increased	number of CHGA+ cells (in words) (3 days treatment of EPs): significant increase; INS+ cell numbers (in words) (3 days treatment of EPs): moderate effect
SERPINF1: niche-derived secreted factor (R&D), 500 ng/ml or 1 μg/ml (protein, UniProt P36955 20-418, looked up) Pigment epithelium-derived …: QNPASPPEEGSPDPDSTGALVEEEDPFFKVPVNKLAAAVSNFGYDLYRVRSSTSPTTNVLLSPLSVATALSALSLGAEQRTESIIHRALYYDLISSPDIHGTYKELLDTVTAPQKNLKSASRIVFEKKLRIKSSFVAPLEKSYGTRPRVLTGNPRLDLQEINNWVQAQMKGKLARSTKEIPDEISILLLGVAHFKGQWVTKFDSRKTSLEDFYLDEERTVRVPMMSDPKAVLRYGLDSDLSCKIAQLPLTGSMSIIFFLPLKVTQNLTLIEESLTSEFIHDIDRELKTVQAVLTVPKLKLSYEGEVTKSLQEMKLQSLFDSPDFSKITGKPIKLTQVEHRAGFEWNEDGAGTTPSPGLQPAHLTFPLDYHLNQPFIFVLRDTDTGALLFIGKILDPRGP			increased	
WNT5B: a WNT5A paralog (protein, UniProt Q9H1J7 18-359, looked up) Protein Wnt-5b: QLLTDANSWWSLALNPVQRPEMFIIGAQPVCSQLPGLSPGQRKLCQLYQEHMAYIGEGAKTGIKECQHQFRQRRWNCSTADNASVFGRVMQIGSRETAFTHAVSAAGVVNAISRACREGELSTCGCSRTARPKDLPRDWLWGGCGDNVEYGYRFAKEFVDAREREKNFAKGSEEQGRVLMNLQNNEAGRRAVYKMADVACKCHGVSGSCSLKTCWLQLAEFRKVGDRLKEKYDSAAAMRVTRKGRLELVNSRFTQPTPEDLVYVDPSPDYCLRNESTGSLGTQGRLCNKTSEGMDGCELMCCGRGYNQFKSVQVERCHCKFHWCCFVRCKKCTEIVDQYICK				INS+ cell numbers (in words) (3 days treatment of EPs): increased INS+ cell numbers in a dose-dependent manner

Reference: patent US20200138870A1, “RECREATION OF PANCREATIC NICHE ALLOWS FOR NOVEL METHODS FOR HUMAN, MATURE BETA DERIVATION FROM PLURIPOTENT STEM CELLS” (Baylor College of Medicine, priority 2016, published 2020)
